B1: DYRK1B (parent)
chain: YQGPGTRRLQEVLGVQTGGPGGRR

Variants of: B1
Experiment: protein stability index of a GFP-peptide fusion (GPS, HEK-293T) (PSI 1-6); higher = more stable
Conditions: c terminus: a fixed tail appended
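Further: lentivirally expressed fusions sorted by FACS into six bins by GFP to DsRed ratio, PSI derived from sequencing read proportions per bin multiplied by bin number.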

Variant	protein stability index
YQGPGTRRLQEVLGVQTGGPGRRR	2.7
YQGPGTRRLQEVLGVQTGGPGWRR	3.01
YQGPGTRRLQEVLGVQTGGPGHRR	3.29
YQGPGTRRLQEVLGVQTGGPGSRR	3.05
YQGPGTRRLQEVLGVQTGGPGYRR	2.63
YQGPGTRRLQEVLGVQTGGPGIRR	3.75
YQGPGTRRLQEVLGVQTGGPGNRR	3.44
YQGPGTRRLQEVLGVQTGGPGMRR	2.67
YQGPGTRRLQEVLGVQTGGPGTRR	3.35
YQGPGTRRLQEVLGVQTGGPGERR	3.4
YQGPGTRRLQEVLGVQTGGPGCRR	2.87
YQGPGTRRLQEVLGVQTGGPGVRR	2.95
YQGPGTRRLQEVLGVQTGGPGPRR	3.48
YQGPGTRRLQEVLGVQTGGPGFRR	2.17
YQGPGTRRLQEVLGVQTGGPGDRR	3.39
YQGPGTRRLQEVLGVQTGGPGKRR	2.51
YQGPGTRRLQEVLGVQTGGPGQRR	3.48
YQGPGTRRLQEVLGVQTGGPGARR	3.13
YQGPGTRRLQEVLGVQTGGPGLRR	2.94
YQGPGTRRLQEVLGVQTGGPGGRK	3.12
YQGPGTRRLQEVLGVQTGGPGGRP	3.45
YQGPGTRRLQEVLGVQTGGPGGRL	2.87
YQGPGTRRLQEVLGVQTGGPGGRH	3.17
YQGPGTRRLQEVLGVQTGGPGGRM	2.5

Variant	protein stability index
YQGPGTRRLQEVLGVQTGGPGGRA	3.23
YQGPGTRRLQEVLGVQTGGPGGRF	2.49
YQGPGTRRLQEVLGVQTGGPGGRG	3.4
YQGPGTRRLQEVLGVQTGGPGGRY	3.24
YQGPGTRRLQEVLGVQTGGPGGRI	3.75
YQGPGTRRLQEVLGVQTGGPGGRS	3.45
YQGPGTRRLQEVLGVQTGGPGGRT	3.02
YQGPGTRRLQEVLGVQTGGPGGRN	3.43
YQGPGTRRLQEVLGVQTGGPGGRD	3.51
YQGPGTRRLQEVLGVQTGGPGGRQ	3.06
YQGPGTRRLQEVLGVQTGGPGGRV	3.54
YQGPGTRRLQEVLGVQTGGPGGRW	2.73
YQGPGTRRLQEVLGVQTGGPGGRC	3.18
YQGPGTRRLQEVLGVQTGGPGGRE	3.67
YQGPGTRRLQEVLGVQTGGPKGRR	2.74
YQGPGTRRLQEVLGVQTGGPFGRR	2.93
YQGPGTRRLQEVLGVQTGGPVGRR	2.2
YQGPGTRRLQEVLGVQTGGPMGRR	3.48
YQGPGTRRLQEVLGVQTGGPYGRR	2.68
YQGPGTRRLQEVLGVQTGGPQGRR	3.4
YQGPGTRRLQEVLGVQTGGPWGRR	2.17
YQGPGTRRLQEVLGVQTGGPHGRR	3.33
YQGPGTRRLQEVLGVQTGGPDGRR	3.88
YQGPGTRRLQEVLGVQTGGPCGRR	2.72

Variant	protein stability index
YQGPGTRRLQEVLGVQTGGPPGRR	3.17
YQGPGTRRLQEVLGVQTGGPTGRR	2.98
YQGPGTRRLQEVLGVQTGGPRGRR	3.32
YQGPGTRRLQEVLGVQTGGPEGRR	3.13
YQGPGTRRLQEVLGVQTGGPLGRR	3.18
YQGPGTRRLQEVLGVQTGGPSGRR	3.04
YQGPGTRRLQEVLGVQTGGPAGRR	3.25
YQGPGTRRLQEVLGVQTGGPNGRR	3.04
YQGPGTRRLQEVLGVQTGGPIGRR	3.15
YQGPGTRRLQEVLGVQTGGNGGRR	3.1
YQGPGTRRLQEVLGVQTGGVGGRR	2.76
YQGPGTRRLQEVLGVQTGGDGGRR	3.51
YQGPGTRRLQEVLGVQTGGHGGRR	2.81
YQGPGTRRLQEVLGVQTGGMGGRR	3.02
YQGPGTRRLQEVLGVQTGGKGGRR	3.83
YQGPGTRRLQEVLGVQTGGGGGRR	3.15
YQGPGTRRLQEVLGVQTGGRGGRR	3.39
YQGPGTRRLQEVLGVQTGGIGGRR	2.84
YQGPGTRRLQEVLGVQTGGAGGRR	3.22
YQGPGTRRLQEVLGVQTGGCGGRR	3.49
YQGPGTRRLQEVLGVQTGGTGGRR	3.32
YQGPGTRRLQEVLGVQTGGWGGRR	2.02
YQGPGTRRLQEVLGVQTGGYGGRR	2.77
YQGPGTRRLQEVLGVQTGGSGGRR	3.28

Variant	protein stability index
YQGPGTRRLQEVLGVQTGGQGGRR	3.16
YQGPGTRRLQEVLGVQTGGEGGRR	3.3
YQGPGTRRLQEVLGVQTGGFGGRR	2.32
YQGPGTRRLQEVLGVQTGGLGGRR	2.82
YQGPGTRRLQEVLGVQTKGPGGRR	2.6
YQGPGTRRLQEVLGVQTQGPGGRR	3.68
YQGPGTRRLQEVLGVQTCGPGGRR	3.07
YQGPGTRRLQEVLGVQTEGPGGRR	3.52
YQGPGTRRLQEVLGVQTPGPGGRR	2.84
YQGPGTRRLQEVLGVQTSGPGGRR	3.15
YQGPGTRRLQEVLGVQTDGPGGRR	4.02
YQGPGTRRLQEVLGVQTLGPGGRR	2.74
YQGPGTRRLQEVLGVQTMGPGGRR	2.79
YQGPGTRRLQEVLGVQTYGPGGRR	2.94
YQGPGTRRLQEVLGVQTHGPGGRR	3.19
YQGPGTRRLQEVLGVQTWGPGGRR	2.81
YQGPGTRRLQEVLGVQTAGPGGRR	3
YQGPGTRRLQEVLGVQTTGPGGRR	3.51
YQGPGTRRLQEVLGVQTVGPGGRR	3.06
YQGPGTRRLQEVLGVQTIGPGGRR	2.4
YQGPGTRRLQEVLGVQTFGPGGRR	3.23
YQGPGTRRLQEVLGVQTNGPGGRR	3.34

Source: the supplement of paper PMC10567573
